In patent US7867500B2, “Cofactor that modulates steroid receptor activities” (The United States of America as represented by the …, priority 2004, dated 2011):
Blank lines part the entries; values can stand above or below the molecule they belong to.

Tests used:
[1] = molecular target: T1, STAMP (Homo sapiens, UniProt Q6EMB2); test: siRNA assay: fold repression by GR of AP-1/Luc reporter in U2OS.rGR cells; assay type: cell-based; settings: 500 ng siRNA, without HA/STAMP plasmid
T1 construct: Indirect immunofluorescence, using HA-tagged full-length STAMP; expressed in transfected cells; host or cells: U2OS.rGR
T1 sequence (Q6EMB2 5-1281 A149V/F1267S limits assumed): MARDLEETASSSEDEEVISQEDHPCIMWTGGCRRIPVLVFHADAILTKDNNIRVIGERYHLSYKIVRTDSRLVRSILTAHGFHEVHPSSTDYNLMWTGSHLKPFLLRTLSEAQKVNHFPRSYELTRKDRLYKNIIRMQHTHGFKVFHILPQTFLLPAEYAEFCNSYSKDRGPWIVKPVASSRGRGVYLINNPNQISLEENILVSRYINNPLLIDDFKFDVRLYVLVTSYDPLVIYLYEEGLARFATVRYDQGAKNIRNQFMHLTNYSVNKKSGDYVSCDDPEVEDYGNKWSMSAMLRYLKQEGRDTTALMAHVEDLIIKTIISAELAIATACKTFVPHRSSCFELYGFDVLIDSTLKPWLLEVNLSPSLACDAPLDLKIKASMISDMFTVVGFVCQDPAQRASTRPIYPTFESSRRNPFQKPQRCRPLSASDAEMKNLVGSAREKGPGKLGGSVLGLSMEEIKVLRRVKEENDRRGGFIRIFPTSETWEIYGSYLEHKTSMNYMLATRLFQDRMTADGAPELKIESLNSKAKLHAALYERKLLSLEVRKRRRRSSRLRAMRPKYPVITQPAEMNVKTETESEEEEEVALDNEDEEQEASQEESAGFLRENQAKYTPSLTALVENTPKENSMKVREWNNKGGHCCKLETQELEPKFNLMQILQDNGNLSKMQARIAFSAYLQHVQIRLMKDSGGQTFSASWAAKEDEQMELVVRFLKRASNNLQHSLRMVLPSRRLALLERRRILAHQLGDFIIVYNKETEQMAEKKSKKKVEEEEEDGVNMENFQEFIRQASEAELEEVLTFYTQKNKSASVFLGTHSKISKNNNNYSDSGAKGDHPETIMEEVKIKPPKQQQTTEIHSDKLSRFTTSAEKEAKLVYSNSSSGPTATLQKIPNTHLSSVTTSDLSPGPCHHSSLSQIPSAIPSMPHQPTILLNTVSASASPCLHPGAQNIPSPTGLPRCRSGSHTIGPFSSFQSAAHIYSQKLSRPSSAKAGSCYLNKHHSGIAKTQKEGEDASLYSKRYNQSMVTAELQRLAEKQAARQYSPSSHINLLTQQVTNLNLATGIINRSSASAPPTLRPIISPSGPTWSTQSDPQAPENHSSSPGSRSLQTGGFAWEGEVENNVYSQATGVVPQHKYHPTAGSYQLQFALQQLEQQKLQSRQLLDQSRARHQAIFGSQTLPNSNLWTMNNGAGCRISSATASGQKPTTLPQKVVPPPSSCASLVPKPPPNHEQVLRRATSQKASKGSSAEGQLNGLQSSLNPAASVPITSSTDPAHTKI
Procedure: U2OS.rGR cells were transiently transfected with (FIG. 5E) or without (FIG. 5F) HA/STAMP plasmid (100 ng) and ±500 ng of STAMP siRNA, or β-actin siRNA, plus AP-1/Luc reporter (20 ng) and the Renilla control (10 ng) plasmid. The cells were processed and the fold repression with each treatment was calculated as described in FIG. 5A. The average values were then plotted (±S.E.M., n=4-5 (FIG. 5D) and 7 (FIG. 5E); *, P≦0.032; **, P=0.0022).
Four different siRNA oligonucleotides for STAMP were designed and synthesized by Qiagen:
A control β-actin siRNA was also purchased from Qiagen. U2OS.rGR cells were seeded at 50,000 cells per well in 24 wells plate the day before transfection. DNA (STAMP plasmid and AP-1/Luc reporter; total=150 ng) together with 500 ng siRNA were mixed with 1.6 μl Lipofectamine 2000 (Invitrogen), allowed to stand at room temperature for 15 min, and then added to FBS-free DMEM pre-washed cells. Four hours later, the cells were re-fed with DMEM/10% FBS (containing G418), allowed to recover for 2 h, and re-fed with DMEM/10% FBS (containing G418) containing appropriate hormone dilutions±PMA. The cells were harvested and Luciferase activity was determined as described above in the standard transient transfection studies.

[2] = molecular target: T2, glucocorticoid receptor (GR) (Rattus norvegicus, UniProt P06536); test: Cell-free pulldown of [35S]-labeled GR by GST/STAMP segment; assay type: binding; settings: with and without steroid
T2 construct: made in house; host or cells: cell-free coupled transcription/translation (Promega TNT SP6); the GST partner was made in E. coli BL21
T2 sequence (P06536 1-795): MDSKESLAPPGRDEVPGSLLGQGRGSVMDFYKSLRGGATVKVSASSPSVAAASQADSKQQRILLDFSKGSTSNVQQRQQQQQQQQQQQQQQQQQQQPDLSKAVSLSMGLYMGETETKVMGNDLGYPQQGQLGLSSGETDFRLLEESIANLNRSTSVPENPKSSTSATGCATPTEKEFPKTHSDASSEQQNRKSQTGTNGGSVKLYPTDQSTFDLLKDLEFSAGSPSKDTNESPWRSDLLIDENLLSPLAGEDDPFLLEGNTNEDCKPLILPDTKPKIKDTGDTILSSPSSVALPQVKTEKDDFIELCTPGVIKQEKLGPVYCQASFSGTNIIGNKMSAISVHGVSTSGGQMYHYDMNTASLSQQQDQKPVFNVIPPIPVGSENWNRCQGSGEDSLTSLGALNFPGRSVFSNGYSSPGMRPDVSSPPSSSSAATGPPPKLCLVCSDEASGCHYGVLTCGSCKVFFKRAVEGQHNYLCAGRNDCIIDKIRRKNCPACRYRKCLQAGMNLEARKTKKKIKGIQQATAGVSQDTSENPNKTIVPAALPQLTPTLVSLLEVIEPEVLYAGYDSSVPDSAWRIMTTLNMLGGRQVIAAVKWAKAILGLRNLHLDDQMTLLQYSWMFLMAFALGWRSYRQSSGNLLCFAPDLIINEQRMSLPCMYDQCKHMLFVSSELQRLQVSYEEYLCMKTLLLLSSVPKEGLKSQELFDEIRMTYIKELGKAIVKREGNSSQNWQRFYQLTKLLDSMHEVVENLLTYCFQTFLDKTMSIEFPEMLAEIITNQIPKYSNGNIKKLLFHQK
T2 sequence (Q6EMB2 960-1281 F1267S partner limits assumed): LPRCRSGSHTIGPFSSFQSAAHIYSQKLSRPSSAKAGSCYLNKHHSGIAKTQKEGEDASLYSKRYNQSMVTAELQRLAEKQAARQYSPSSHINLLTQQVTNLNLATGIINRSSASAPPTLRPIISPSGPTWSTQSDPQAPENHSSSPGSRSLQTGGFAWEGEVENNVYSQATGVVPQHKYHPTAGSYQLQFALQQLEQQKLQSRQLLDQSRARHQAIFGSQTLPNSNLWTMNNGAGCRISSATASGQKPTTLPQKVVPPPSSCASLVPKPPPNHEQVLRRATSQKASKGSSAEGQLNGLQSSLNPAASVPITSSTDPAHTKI
From the text: (§1) FIGS. 7A and 7B illustrate the domains of STAMP that bind to TIF2.4 (FIG. 7A) and GR (FIG. 7B) in cell-free pulldown assays. Bacterially expressed GST-chimeras (GST/TIF2.4 in FIG. 7A and GST/STAMP segments in FIG. 7B) were immobilized on glutathione-Sepharose beads. The [^35S]methionine labeled STAMP fragments (FIG. 7A) or wild type GR (FIG. 7B) that were retained on the matrix by binding to the GST chimeras were separated on SDS PAGE gels and visualized by autoradiography. Specific binding was seen as when the GST/TIF2.4 or GST/STAMP bands were darker than the GST control bands. […] Similar results were obtained in a second experiment.
(§2) Template DNA plasmids (1 μg), 40 μl of Promega TNT (SP6) quick coupled transcription/translation system master mixture, and 2 μl of [^35S]methionine (Amersham Biosciences) were brought up to a total volume of 50 μl with H2O and incubated at 30° C. for 90 min according to the manufacturer's (Promega) recommendations. If hormone stimulation is needed, hormones (Dex, etc) were added into the transcription-translation reaction during the 30° C. incubation to both increase the stability of the synthesized GR and to cause activation of the GR-steroid complexes.
These assays were conducted generally as described (He et al., 2002). […] The proteins were separated on 8-10% SDS-PAGE gels and detected by radio-autoradiography.

[3] = molecular target: T3, TIF2.4 (Homo sapiens, UniProt Q15596); test: Cell-free pulldown of [35S]-labeled STAMP constructs by GST/TIF2.4; assay type: binding; settings: compared with GST itself
T3 sequence (Q15596 624-1010 limits assumed): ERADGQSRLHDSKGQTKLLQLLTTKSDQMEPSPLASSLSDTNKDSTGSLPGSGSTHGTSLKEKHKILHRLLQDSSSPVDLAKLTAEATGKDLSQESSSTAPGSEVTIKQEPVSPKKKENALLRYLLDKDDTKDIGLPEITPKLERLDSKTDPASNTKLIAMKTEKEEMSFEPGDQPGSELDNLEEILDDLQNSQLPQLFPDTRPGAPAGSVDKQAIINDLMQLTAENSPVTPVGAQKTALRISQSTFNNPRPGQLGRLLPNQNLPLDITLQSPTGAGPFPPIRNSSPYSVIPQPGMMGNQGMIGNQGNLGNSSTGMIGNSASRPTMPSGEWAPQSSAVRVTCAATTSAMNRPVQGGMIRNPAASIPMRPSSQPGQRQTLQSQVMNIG
From the text: as §1, §2
These assays were conducted generally as described (He et al., 2002). Sonicated bacterial lysates (1 ml) containing overexpressed GST, GST/TIF2.4, or GST/STAMP-956C were incubated with 160 μl of glutathione-Sepharose 4B beads for 1 hr at 0° C. The mixture was centrifuged (12,000×g), the supernatant was discarded, and the pellet was washed with phosphate-buffered saline (3×1 ml). Each 20-μl sample of immobilized GST or GST-chimera was then incubated overnight with 10 μl of ^35S-labeled in vitro translation product. The matrix was washed with phosphate-buffered saline (4×1 ml). The immobilized proteins were removed from the beads by heating at 90° C. for 5 min in 20 μl of 2×SDS loading buffer. The proteins were separated on 8-10% SDS-PAGE gels and detected by radio-autoradiography.

[4] = molecular target: T3, TIF2.4; test: Mammalian two-hybrid assay in CV-1 cells (pFRLuc reporter) with TIF2.4; assay type: cell-based; parameters: expressed in transfected cells; host or cells: CV-1
From the text: FIG. 2A-2C illustrate the isolation and characterization of the partial clone of the protein that binds to TIF2.4. […] Five clones were obtained but only two (clones I and V) contained a protein that was needed for colony growth in the presence of the pSos/TIF2.4 fusion protein. After initial screening, only clone I (also named 6-6CL1) was selected for further investigation. FIG. 2B and FIG. 2C illustrate the selectivity of 6-6CL1 interactions with TIF2.4 in mammalian two-hybrid assays. Triplicate samples of CV-1 cells in 24-well plates were transiently transfected with the indicated GAL-DBD and VP16-AD plasmids along with the GAL4-regulated reporter, pFRLuc. The relative luciferase activity, normalized for the activity of the internal Renilla control, was determined and plotted as the average±S.D. The much lower activity of GAL/TIF2.4m123 was previously shown not to be due to unequal levels of protein expression (He et al., 2002). Similar results were obtained in three additional experiments. FIG. 2D and FIG. 2E provide a comparison of binding to 6-6CL1 by similarly positioned domains of SRC-1 and TIF2. Triplicate samples of CV-1 cells in 24-well plates were analyzed as in (B&C) after being transiently transfected with GAL±6-6CL1 constructs and pFRLuc reporter along with VP16 chimeras of SRC-1 (FIG. 2D) or TIF2 (FIG. 2E) segments. Similar results for SRC-1 were obtained in two additional experiments (ND=not determined). Western blots (FIG. 2F) indicate that the low activity of TIF2(1140C) (see FIG. 1) is not due to inadequate protein expression.
FIGS. 6A and 6B illustrate the domains of STAMP that interact with TIF2.4 (FIG. 6A) and GR (FIG. 6B) in the mammalian two-hybrid assay. […] These CV-1 cells were also transfected with GAL fused to the indicated segments of STAMP along with the FRLuc reporter and Renilla control plasmids. After determining the relative luciferase activities as described in FIG. 2B and 2C, the average values±S.E.M. from 2-5 experiments were plotted. The average fold increase for VP16/TIF2.4 with GAL/STAMP(623-834) in FIG. 6A was 11.0±3.0 (SEM, n=5) above the VP16 control. The values in parentheses above the data bars in FIG. 6B indicate the fold increased interaction ±1 μM Dex.
These assays were conducted as described (He et al., 2002). In particular, the recommended procedure for the Mammalian Matchmaker two-hybrid assay kit (Clontech) was modified slightly by changing from a chloramphenicol acetyltransferase reporter to a Luciferase Reporter pFRLuc (Stratagene), which is under the control of five repeats of the upstream activating sequence for the binding of GAL4.

Molecule: GAGGGCAATGAGGCCAAAATA (chemistry not given here) [STAMP siRNA #4, siRNA oligonucleotide for STAMP synthesized by Qiagen]
repressive activity of GR-agonist complexes (endogenous STAMP) [1]: can reduce the repressive activity of GR-agonist complexes

Molecule: CAGCACTGACTATAACCTAAT (chemistry not given here) [STAMP siRNA #3, siRNA oligonucleotide for STAMP synthesized by Qiagen]
repressive activity of GR-agonist complexes (endogenous STAMP) [1]: can reduce the repressive activity of GR-agonist complexes

binding of full length GR [2]: this binding is steroid-independent
B1: GST/STAMP(956C): GST chimera of STAMP fragment amino acids 956 to 1277 (protein)
chain: T2 sequence (Q6EMB2 960-1281 F1267S partner limits assumed)
modifications: GST fusion

interaction with TIF2.4 [4]: weak response
B2: N623: STAMP fragment amino acids 1-623, TTL domain but not the CID region (protein)
chain: MARDLEETASSSEDEEVISQEDHPCIMWTGGCRRIPVLVFHADAILTKDNNIRVIGERYHLSYKIVRTDSRLVRSILTAHGFHEVHPSSTDYNLMWTGSHLKPFLLRTLSEAQKVNHFPRSYELTRKDRLYKNIIRMQHTHGFKVFHILPQTFLLPAEYAEFCNSYSKDRGPWIVKPVASSRGRGVYLINNPNQISLEENILVSRYINNPLLIDDFKFDVRLYVLVTSYDPLVIYLYEEGLARFATVRYDQGAKNIRNQFMHLTNYSVNKKSGDYVSCDDPEVEDYGNKWSMSAMLRYLKQEGRDTTALMAHVEDLIIKTIISAELAIATACKTFVPHRSSCFELYGFDVLIDSTLKPWLLEVNLSPSLACDAPLDLKIKASMISDMFTVVGFVCQDPAQRASTRPIYPTFESSRRNPFQKPQRCRPLSASDAEMKNLVGSAREKGPGKLGGSVLGLSMEEIKVLRRVKEENDRRGGFIRIFPTSETWEIYGSYLEHKTSMNYMLATRLFQDRMTADGAPELKIESLNSKAKLHAALYERKLLSLEVRKRRRRSSRLRAMRPKYPVITQPAEMNVKTETESEEEEEVALDNEDEEQEASQEESAGFLRENQAKYTPSLTALVE
modifications: GAL4 DBD fusion
notes: STAMP fragment amino acids 1-623, TTL domain but not the CID region
binding to GST/TIF2.4 [3]: neither the amino terminal (N623) nor the C-terminal (834C) fragments exhibit significantly more binding to GST/TIF2.4 than to GST itself
